Drawing on publication PMC4421749, this text covers Kd for one substance.

The test has as its target microtubules assembled from bovine brain tubulin (bovine) (UniProt Q6B856). Description: co-sedimentation; 0.5 μM 4R-tau with increasing taxol-stabilized microtubules, 30 min at RT, BRB80-K (BRB80 + 50 mM KCl); 230,000 x g 15 min; tau in the pellet by densitometry of Coomassie gels; hyperbolic fit; apparent Kd.

Regarding “4R-tau (1N4R-tau), recombinant human tau containing four microtubule-binding sites (from UniProt P10636-7 1-412) (natural protein)”, the Kd is 0.28 µM.
